From patent publication US20260234247A1 (published 2026)

Key:
[1] = molecular target: T1, human LILRB1 on CHOK1 cells (human, UniProt Q8NHL6 24-650); assay: cell-based RBA (FACS): blocking of HLA-G binding to CHOK1-hLILRB1 cells
T1 construct: whole, on cells; also called CHOK1-hLILRB1; CHOK1-LILRB1

[2] = molecular target: T1, human LILRB1 on CHOK1 cells; assay: FACS binding, CHOK1-hLILRB1 cells
[3] = molecular target: T2, human LILRB2 on CHOK1 cells (human, UniProt Q8N423 22-597); assay: FACS binding, CHOK1-hLILRB2 cells
T2 construct: whole, on cells; also called CHOK1-hLILRB2; CHOK1-LILRB2
T2 sequence (Q8N423 22-597): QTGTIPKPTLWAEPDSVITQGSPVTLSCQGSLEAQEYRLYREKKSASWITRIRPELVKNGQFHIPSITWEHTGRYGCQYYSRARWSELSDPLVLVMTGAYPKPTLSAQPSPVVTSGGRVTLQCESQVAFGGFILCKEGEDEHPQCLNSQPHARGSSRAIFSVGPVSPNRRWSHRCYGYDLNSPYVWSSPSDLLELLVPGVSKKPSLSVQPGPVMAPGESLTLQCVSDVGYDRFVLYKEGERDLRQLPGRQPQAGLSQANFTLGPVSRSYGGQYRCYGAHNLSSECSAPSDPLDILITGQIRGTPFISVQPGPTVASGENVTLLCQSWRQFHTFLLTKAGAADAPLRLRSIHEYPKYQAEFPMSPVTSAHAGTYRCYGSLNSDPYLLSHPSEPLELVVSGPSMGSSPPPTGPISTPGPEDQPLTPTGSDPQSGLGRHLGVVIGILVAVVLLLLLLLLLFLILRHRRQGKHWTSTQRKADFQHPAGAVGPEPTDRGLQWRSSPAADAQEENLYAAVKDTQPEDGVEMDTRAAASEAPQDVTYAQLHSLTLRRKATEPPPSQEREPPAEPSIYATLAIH

T1 sequence (Q8NHL6 24-650): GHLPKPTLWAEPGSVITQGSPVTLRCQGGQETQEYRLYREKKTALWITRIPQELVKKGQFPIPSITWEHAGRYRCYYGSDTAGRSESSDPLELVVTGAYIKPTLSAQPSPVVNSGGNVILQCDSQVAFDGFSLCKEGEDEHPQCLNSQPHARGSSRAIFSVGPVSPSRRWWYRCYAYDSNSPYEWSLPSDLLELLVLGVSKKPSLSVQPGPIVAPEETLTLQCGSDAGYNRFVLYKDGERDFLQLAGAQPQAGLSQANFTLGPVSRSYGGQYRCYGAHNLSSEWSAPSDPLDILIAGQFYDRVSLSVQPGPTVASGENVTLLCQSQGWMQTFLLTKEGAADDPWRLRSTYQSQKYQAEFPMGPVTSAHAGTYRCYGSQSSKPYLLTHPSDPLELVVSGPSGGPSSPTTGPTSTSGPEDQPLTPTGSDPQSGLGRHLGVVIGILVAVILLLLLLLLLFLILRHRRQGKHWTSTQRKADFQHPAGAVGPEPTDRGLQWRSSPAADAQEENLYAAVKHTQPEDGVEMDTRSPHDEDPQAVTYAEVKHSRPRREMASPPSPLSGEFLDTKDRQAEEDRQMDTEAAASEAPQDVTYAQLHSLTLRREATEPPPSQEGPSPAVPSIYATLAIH

| Binder | EC50 [1] [nM] | Top Inhibition (%) [1] [%] | EC50 [2] [nM] | binding result [3] | EC50 [3] [nM] |
| --- | --- | --- | --- | --- | --- |
| LK-RB1-26 (antibody, human IgG4 S228P, kappa, V domains shown) VH: QVQLKESGPGLVAPSQSLSITCTVSGFSLTSYGVSWVRQPPGKGLEWLGIIWGDGSTNYHSALISRLSISKDNSKSQVFLKLNSLQTDDTATYYCAKPNWDYYAMDYWGQGTSVTVSS VL: DIQMTQTTSSLSASLGDRVTISCRASQDISNFLNWYQQKPDGTFKLLISYTSTLHSGVPSRFSGSGSGTDYSLTISNLEQEDVATYFCQQGNTLPLTFGAGTKLALKR | 0.69 | 99.6 | 0.51 | no binding | – |
| LK-RB1-29 (antibody, human IgG4 S228P, kappa, V domains shown) VH: QVQLKESGPGLVAPSQNLAITCTVSGFSLTNSGVSWVRQSPGKGLEWLGIIWGDGNTNYHSALISRLSISKDNSKSQVFLKLNSLQTDDTGTYYCAKPNWDYYALDYWGQGTSVTVSS VL: DIQMTQTASSLFASLGDRVTISCRASQDISNYLNWYQQKPDGSIKLLISYTSRLHSGVPSRFSGSGSGTDYSLSISNLEQEDIATYFCQQGISLPCTFGGGTKLEVNR | 2.93 | 93.3 | 2.38 | no binding | – |
| LK-RB1-30 (antibody, human IgG4 S228P, kappa, V domains shown) VH: QVQLKESGPGLVAPSQSLSITCTVSGFSLTSYGVSWIRQPPGKGLEWLGVIWGDGNTNYHSALISRLSISKDNSKSQVFLKLNSLQTDDTATYYCAKPSWDYYAMDYWGQGTSVTVSS VL: VIQMTQTTSSLSASLGDRVTISCRASQDISNYVNWYQQRPDGTVKLLISYTSRLHSGVPSRFSGSGSGTDYSLTITNLEQEDIATYFCQQGITLPCTFGGGTKLEINR | 0.7 | 95.6 | 1.06 | no binding | – |
| LK-RB1-34 (antibody, human IgG4 S228P, kappa, V domains shown) VH: QVQLQQSGAELVKPGASVKLSCKASGYTFTEYTIHWVKQRSGQGLEWIGWFYPGSDSIKYNEKFKDKATLTADKSSSTVYMELSRLTSEDSAVYFCSRHEGPYFTSQYYFDYWGQGTTLTVSS VL: DILLTQSPAILSVSPGERVSFSCRASRYIGTSIHWYQQRTNGSPRLLIKYASESISGIPSRFSGSGSGTDFTLSINSVESEDIADYYCQQSNTWPLTFGAGTKLELKR | 3.69 | 21.7 | 1.56 | no binding | – |
| LK-RB1-39 (antibody, human IgG4 S228P, kappa, V domains shown) VH: EVQLQQSGAELVRPGASVKLSCTASGFNIKDDYVHWVNQRPEQGLEWIGWIDPENGDTGYASKFQDKATITADTSSNTAYLHLSSLTSEDTAVYYCTTTRWTGSYWGQGTTLTVSS VL: QIVLTQSPAIMSASPGEKVTITCSASSSVNYMHWFQQKPGSSPKLWIYSTANLASGVPARFSGSGSGTSYSLTISRMEAEDAATYYCQQRSSYPPTWTFGGGTKLEIKR | 0.68 | 95.7 | 0.77 | – | 0.17 |
| LK-RB1-27 (antibody, human IgG4 S228P, kappa, V domains shown) VH: QVQLQQSGPELVKPGASVRMSCKASGYTFTSHYIHWMKQRPGQGLEWIGWIYPGDGHTKYHEKFKDRATLTADTSSITAYMRLSSLTSEDSAIYYCVYYSDSWFPYWGQGTLVTVSA VL: DIQMTQSPASLSVSVGETVTITCRASENIYSNLAWYQQKQGKSPHLLVYAATNLADGVPSRFSGSGSGTQYSLKINSLQSEDFGNYYCQHFWGSPWTFGGGTKLEIKR | 0.9 | 98.7 | 0.71 | – | 4.95 |
| LK-RB1-42 (antibody, human IgG4 S228P, kappa, V domains shown) VH: QVQLQQPGAELVKPGTSVKLSCKASGYSFISYWVYWVKQRPGQGLEWIGMIHPNSGSTNFNEKFRYKATLTVDKSSSTAYIQLSSLTSEDSAVYYCGRSDDGYPYHAMDSWGQGTSVTVSS VL: DIVMTQSQKFMSTSVGDRVSVTCKASQNVGTNVAWYQQKPGQSPKALIYSASYRFSGVPDRFTGSGSGTDFTLTIGNVQSEDLAEYFCHQYKNYPLTFGGGTKLEIKR | 4.5 | 62.2 | 0.89 | no binding | – |
